Measured values reported in patent US20180222982A1 (Novartis, published 2018).
Values belong to the binder of their own block, whether it stands above or below them.

Legend:
[1] = molecular target: T1, human PD-1-Ig fusion protein (human, UniProt Q15116 25-167); assay: ELISA on human PD-1-Ig fusion protein
T1 construct: not shown: Ig part of the fusion protein

[2] = molecular target: T2, human PD-1 expressed on cells (human, UniProt Q15116 25-288); assay: FACS on human PD-1 transfected Jurkat cells
T2 construct: whole, on cells; those cells are treated here as the same human PD-1; also called Programmed Death 1; human PD-1 transfected Jurkat cells

[3] = molecular target: T2, human PD-1 expressed on cells; assay: competition binding assay; blocks PD-L1 binding to human PD-1-expressing 300.19 cells
[4] = molecular target: T3, cynomolgus PD-1 expressed on cells (cynomolgus); assay: FACS on cynomolgus T cells (e.g., CD3/CD28 activated CD4 T cells)
T3 construct: whole, on cells; also called cells transfected with cynomolgus PD-1

[5] = molecular target: T3, cynomolgus PD-1 expressed on cells; assay: FACS on cells transfected with cynomolgus PD-1
[6] = molecular target: T2, human PD-1 expressed on cells; assay: competition binding assay; blocks PD-L2 binding to human PD-1-expressing 300.19 cells
[7] = molecular target: T2, human PD-1 expressed on cells; assay: cell-based or functional assay
[8] = molecular target: T2, human PD-1 expressed on cells; assay: FACS blocking of PD-L1-Ig binding to PD-1-expressing 300.19 cells

T2 sequence (Q15116 25-288): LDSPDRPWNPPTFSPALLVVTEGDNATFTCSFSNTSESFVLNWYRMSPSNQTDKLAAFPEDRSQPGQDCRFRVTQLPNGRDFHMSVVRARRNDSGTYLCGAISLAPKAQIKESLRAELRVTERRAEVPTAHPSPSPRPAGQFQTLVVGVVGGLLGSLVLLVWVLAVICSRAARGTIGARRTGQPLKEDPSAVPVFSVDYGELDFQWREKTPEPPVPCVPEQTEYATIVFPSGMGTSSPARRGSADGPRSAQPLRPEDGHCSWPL
T1 sequence (Q15116 25-167): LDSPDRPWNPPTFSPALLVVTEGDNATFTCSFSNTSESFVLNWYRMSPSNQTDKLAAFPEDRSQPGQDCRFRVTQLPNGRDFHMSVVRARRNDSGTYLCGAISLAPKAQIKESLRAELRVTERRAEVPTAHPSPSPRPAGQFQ

Kd [1]: 0.04 nM
Kd [2]: 0.06 nM
IC50 [3]: 0.3 nM
Kd [4]: 0.4 nM
Kd [5]: 0.6 nM
IC50 [6]: 0.9 nM
B1: murine anti-PD-1 monoclonal antibody BAP049 (antibody, V domains shown)
VH: QVQLQQSGSELVRPGASVKLSCKASGYTFTTYWMHWVRQRPGQGLEWIGNIYPGTGGSNFDEKFKNRTSLTVDTSSTTAYMHLASLTSEDSAVYYCTRWTTGTGAYWGQGTLVTVSA
VL: DIVMTQSPSSLTVTAGEKVTMSCKSSQSLLDSGNQKNFLTWYQQKPGQPPKLLIFWASTRESGVPDRFTGSGSVTDFTLTISSVQAEDLAVYYCQNDYSYPCTFGGGTKLEIK
notes: the murine constant regions are not; also called Mu mAb; murine mAb BAP049

ex vivo EC50 for PD-1 blockade [7]: 0.42 µg/mL
B2: humanized anti-PD-1 antibody BAP049-Clone-E (antibody, human IgG4 S228P, kappa)
heavy: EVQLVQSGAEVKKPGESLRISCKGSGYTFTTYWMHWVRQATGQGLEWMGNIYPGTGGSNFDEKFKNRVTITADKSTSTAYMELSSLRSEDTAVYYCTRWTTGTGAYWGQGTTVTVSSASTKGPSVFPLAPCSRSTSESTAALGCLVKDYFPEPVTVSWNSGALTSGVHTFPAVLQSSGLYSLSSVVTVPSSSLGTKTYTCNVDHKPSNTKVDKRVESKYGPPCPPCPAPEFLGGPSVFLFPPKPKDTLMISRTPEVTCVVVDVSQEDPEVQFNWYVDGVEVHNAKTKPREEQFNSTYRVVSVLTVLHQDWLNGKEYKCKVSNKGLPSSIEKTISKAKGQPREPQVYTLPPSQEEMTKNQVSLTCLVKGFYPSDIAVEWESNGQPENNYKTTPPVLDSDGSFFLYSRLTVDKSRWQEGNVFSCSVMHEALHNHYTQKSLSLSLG
light: EIVLTQSPATLSLSPGERATLSCKSSQSLLDSGNQKNFLTWYQQKPGQAPRLLIYWASTRESGVPSRFSGSGSGTDFTFTISSLEAEDAATYYCQNDYSYPYTFGQGTKVEIKRTVAAPSVFIFPPSDEQLKSGTASVVCLLNNFYPREAKVQWKVDNALQSGNSQESVTEQDSKDSTYSLSSTLTLSKADYEKHKVYACEVTHQGLSSPVTKSFNRGEC

IC50 (read off the curve) [8]: ~1 µg/mL
B3: humanized anti-PD-1 antibody BAP049-hum09 (antibody, human IgG4 S228P, kappa)
heavy: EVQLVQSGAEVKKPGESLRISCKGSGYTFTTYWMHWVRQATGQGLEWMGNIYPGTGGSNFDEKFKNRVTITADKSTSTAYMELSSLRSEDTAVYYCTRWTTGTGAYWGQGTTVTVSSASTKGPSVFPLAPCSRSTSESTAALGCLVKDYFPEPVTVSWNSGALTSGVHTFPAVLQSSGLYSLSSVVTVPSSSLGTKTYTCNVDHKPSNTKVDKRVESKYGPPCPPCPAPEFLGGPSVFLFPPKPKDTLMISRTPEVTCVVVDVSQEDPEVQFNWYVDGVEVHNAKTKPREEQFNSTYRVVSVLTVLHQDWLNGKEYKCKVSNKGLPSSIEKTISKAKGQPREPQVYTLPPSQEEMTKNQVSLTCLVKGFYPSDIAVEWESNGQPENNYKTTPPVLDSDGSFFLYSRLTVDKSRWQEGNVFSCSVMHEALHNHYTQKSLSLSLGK
light: EIVLTQSPDFQSVTPKEKVTITCKSSQSLLDSGNQKNFLTWYQQKPGQAPRLLIYWASTRESGVPSRFSGSGSGTDFTFTISSLEAEDAATYYCQNDYSYPYTFGQGTKVEIKRTVAAPSVFIFPPSDEQLKSGTASVVCLLNNFYPREAKVQWKVDNALQSGNSQESVTEQDSKDSTYSLSSTLTLSKADYEKHKVYACEVTHQGLSSPVTKSFNRGEC
notes: Whole IgG4(S228P)/kappa; tested as concentrated supernatant of transiently transfected CHO cells; also called Clone No. 09
